The values that follow are results of earlier work, collected in publication PMC10764639.

The target of this series is TLR4 (Homo sapiens) (UniProt O00206).
Sequence of UniProt O00206 (O00206 24-839): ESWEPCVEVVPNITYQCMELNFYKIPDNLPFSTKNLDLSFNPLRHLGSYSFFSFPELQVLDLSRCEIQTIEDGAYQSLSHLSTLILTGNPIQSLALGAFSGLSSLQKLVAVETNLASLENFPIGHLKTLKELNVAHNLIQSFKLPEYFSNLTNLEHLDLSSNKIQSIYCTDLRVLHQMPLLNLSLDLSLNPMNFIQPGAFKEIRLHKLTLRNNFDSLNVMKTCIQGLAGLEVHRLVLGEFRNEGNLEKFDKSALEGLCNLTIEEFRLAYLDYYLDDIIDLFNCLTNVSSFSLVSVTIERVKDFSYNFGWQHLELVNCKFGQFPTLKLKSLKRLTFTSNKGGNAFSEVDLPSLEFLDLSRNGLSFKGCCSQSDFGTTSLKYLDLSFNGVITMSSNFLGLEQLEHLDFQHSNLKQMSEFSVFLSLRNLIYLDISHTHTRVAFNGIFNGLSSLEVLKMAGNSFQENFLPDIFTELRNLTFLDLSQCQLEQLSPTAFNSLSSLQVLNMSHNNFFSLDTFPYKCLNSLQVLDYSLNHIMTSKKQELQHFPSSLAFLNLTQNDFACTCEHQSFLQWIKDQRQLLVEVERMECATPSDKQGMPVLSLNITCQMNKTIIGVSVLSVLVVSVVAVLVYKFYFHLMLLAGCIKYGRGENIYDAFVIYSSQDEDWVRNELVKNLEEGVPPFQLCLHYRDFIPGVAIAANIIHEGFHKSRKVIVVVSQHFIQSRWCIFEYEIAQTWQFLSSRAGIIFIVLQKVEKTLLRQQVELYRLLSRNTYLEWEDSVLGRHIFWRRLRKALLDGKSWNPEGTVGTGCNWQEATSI

As for HMGB1 (from UniProt P09429), the Kd is 12 nM.

The Kd is the free concentration of one partner at which half of the binding sites on the other are occupied at equilibrium, for simple one-to-one binding.
